Experimental data taken from patent US20040224408A1, “THAP proteins as nuclear receptors for chemokines and roles in transcriptional regulation, cell proliferation and cell differentiation” (published 2004).
Where a chain is given by its changes, count along the chain named. Numbers in names are those of the source.

Key:
[1] = biological target: T1, human THAP2 (human, UniProt Q9H0W7 1-228, limits assumed); assay: yeast two-hybrid using Par-4 wild type bait (FIG. 10B)
T1 construct: also called hTHAP2

[2] = biological target: T2, human THAP3 (human, UniProt Q8WTV1 1-239, limits assumed); assay: as above
T2 construct: also called hTHAP3
T2 sequence: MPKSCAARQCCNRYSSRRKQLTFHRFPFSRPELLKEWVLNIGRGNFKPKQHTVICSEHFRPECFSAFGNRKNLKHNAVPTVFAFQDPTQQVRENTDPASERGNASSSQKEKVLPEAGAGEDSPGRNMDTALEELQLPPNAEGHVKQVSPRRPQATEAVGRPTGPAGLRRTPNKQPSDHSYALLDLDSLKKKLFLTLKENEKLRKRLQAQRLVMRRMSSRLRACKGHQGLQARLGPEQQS

[3] = biological target: T3, human THAP1 (THanatos (death)-Associated Protein-1), full length (human, UniProt Q9NVV9 1-213); assay: yeast two-hybrid, both orientations (His/Ade selection)
T3 construct: also called hTHAP1; FLJ10477
T3 sequence: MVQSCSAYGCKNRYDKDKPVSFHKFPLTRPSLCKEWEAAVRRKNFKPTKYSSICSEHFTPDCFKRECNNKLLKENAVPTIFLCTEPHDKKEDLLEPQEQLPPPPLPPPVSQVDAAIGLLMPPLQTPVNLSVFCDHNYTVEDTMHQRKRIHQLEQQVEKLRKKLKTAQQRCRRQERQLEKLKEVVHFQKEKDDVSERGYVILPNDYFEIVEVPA
From the text: We then examined whether the leucine zipper/death domain at the C-terminus of Par4, previously shown to be involved in Par4 binding to WT-1 and aPKC, was required for the interaction between THAP1 and Par4. Two Par4 mutants were constructed for that purpose, Par4A and Par4DD. Par4A lacks the leucine zipper/death domain while Par4DD contains this domain. pGBKT7-Par4A(amino acids 1-276) and pGADT7-Par4A. were constructed by sub-cloning a EcoRI-BglII fragment from pGADT7-Par4 into the EcoRI and BamHI sites of pGBKT7 and pGADT7. Par4DD (amino acids 250-342) was amplified by PCR, using pGBKT7-Par4 as template, with primers Par4.4 (5′-[…]-3′) (SEQ ID NO: 193) and Par4.5, and cloned into the EcoRI and BamHI sites of pGBKT7 and pGADT7 to obtain pGBKT7-Par4DD and pGADT7-Par4DD. Two-hybrid interaction between THAP1 and Par4 mutants was tested by cotransformation of AH109 with pGBKT7-THAP1 and pGADT7-Par4A or pGADT7-Par4DD and selection of transformants by His and Ade double auxotrophy according to manufacturer's instructions ([…] two-hybrid system 3, Clontech). […] Similar results were obtained when two-hybrid experiments were performed in the opposite orientation using Par4 or Par4 mutants (Par4A and Par4DD) as baits instead of THAP1 (FIG. 3A).

[4] = biological target: T3, human THAP1 (THanatos …); assay: yeast two-hybrid, BD7-THAP1 with AD7-SLC/CCL21ΔCOOH; identical results in the opposite orientation
From the text: For two-hybrid assays, yeast cells were cotransformed with BD7-THAP1 and AD7-SLC/CCL21 or AD7-SLC/CCL21ΔCOOH expression vectors. AD7-SLC/CCL21 or AD7-SLC/CCL21ΔCOOH expression vectors were generated by subcloning BamHI fragment (encoding SLC amino acids 24-134) or BamHI-PstI fragment (encoding SLC amino acids 24-102) from pGKT7-SLC/CCL21 (see example 15) into pGADT7 expression vector (Clontech). Transformants were selected on media lacking histidine and adenine. […] Identical results were obtained by cotransformation of AD7-THAP1 with BD7-SLC/CCL21 or BD7-SLC/CCL21ΔCOOH.

[5] = biological target: T4, Par4 leucine zipper/death domain (Par4DD, amino acids 250-342) (human, UniProt Q96IZ0 248-340); assay: yeast two-hybrid
T4 construct: also called myc-Par4DD; mycPar4DD
T4 chain: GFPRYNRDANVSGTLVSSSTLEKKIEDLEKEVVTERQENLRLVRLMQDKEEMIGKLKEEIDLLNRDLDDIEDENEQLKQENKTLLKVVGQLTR
Protocol: Two-hybrid interaction between THAP1 mutants and Par4DD was tested by cotransformation of AH109 with pGBKT7-THAP1-C1, -C2, -C3, -N1, -N2 or -N3 and pGADT7-Par4DD and selection of transformants by His and Ade double auxotrophy according to manufacturer's instructions ([…] two-hybrid system 3, Clontech).
for mutant THAP1ΔQRCRR. The resulting PCR fragments were digested with EcoRI and BamHI, and cloned in frame downstream of the Gal4 Binding Domain (Gal4-BD) in pGBKT7 two-hybrid vector (Clontech) to generate pGBKT7-THAP1-RR/AA and −Δ(QRCRR), or downstream of the Enhanced Green Fluorescent Protein (EGFP) ORF in pEGFP.C2 vector (Clontech) to generate pEGFP.C2-THAP1-RR/AA and −Δ(QRCRR). THAP1 RR/AA and THAP1ΔQRCRR THAP1 mutants were then tested in the three THAP1/Par4 interaction assays (two-hybrid assay, in vitro THAP1/Par4 interaction assay, in vivo THAP1/Par4 interaction assay) as described above for the THAP1-C1, -C2, -C3, -N1, -N2 or -N3 mutants.

[6] = biological target: T5, GST-Par4DD fusion protein (pGEX-2T-Par4DD, Par4 amino acids 250-342) (human, UniProt Q96IZ0 248-340); assay: in vitro THAP1/Par4 interaction assay (GST pull-down with GST-Par4DD)
T5 construct: Expressed in E. coli DH5alpha and immobilized on glutathione sepharose; not shown: Glutathione S-transferase (GST) encoded by the pGEX-2T prokaryotic expression vector (Amersham Pharmacia Biotech); N-ter
T5 chain: T4 chain
Protocol: THAP1 mutants were also tested in the in vitro THAP1/Par4 interaction assay. In vitro-translated THAP1 mutants were generated with the TNT-coupled reticulocyte lysate system (Promega, Madison, Wis., USA) using pGBKT7-THAP1-C1, -C2, -C3, -N1, -N2 or -N3 vector as template. 25 μl of each ³⁵S-labelled THAP1 mutant was incubated with immobilized GST or GST-Par4 protein overnight at 4° C., in the following binding buffer: 10 mM NaPO4 pH 8.0, 140 mM NaCl, 3 mM MgCl2, 1 mM dithiothreitol (DTT), 0.05% NP40, and 0.2 mM phenylmethyl sulphonyl fluoride (PMSF), 1 mM Na Vanadate, 50 mM β Glycerophosphate, 25 μg/ml chimotrypsine, 5 μg/ml aprotinin, 10 μg/ml Leupeptin. Beads were then washed 5 times in 1 ml binding buffer. Bound proteins were eluted with 2×Laemmli SDS-PAGE sample buffer, fractionated by 10% SDS-PAGE and visualized by fluorography using Amplify (Amersham Pharmacia Biotech). As expected, THAP1-C1, -C2, -C3, -and -N3 interacted with GST/Par4DD (FIG. 4B).
for mutant THAP1ΔQRCRR. The resulting PCR fragments were digested with EcoRI and BamHI, and cloned in frame downstream of the Gal4 Binding Domain (Gal4-BD) in pGBKT7 two-hybrid vector (Clontech) to generate pGBKT7-THAP1-RR/AA and −Δ(QRCRR), or downstream of the Enhanced Green Fluorescent Protein (EGFP) ORF in pEGFP.C2 vector (Clontech) to generate pEGFP.C2-THAP1-RR/AA and −Δ(QRCRR). […]

T1 sequence (Q9H0W7 whole entry): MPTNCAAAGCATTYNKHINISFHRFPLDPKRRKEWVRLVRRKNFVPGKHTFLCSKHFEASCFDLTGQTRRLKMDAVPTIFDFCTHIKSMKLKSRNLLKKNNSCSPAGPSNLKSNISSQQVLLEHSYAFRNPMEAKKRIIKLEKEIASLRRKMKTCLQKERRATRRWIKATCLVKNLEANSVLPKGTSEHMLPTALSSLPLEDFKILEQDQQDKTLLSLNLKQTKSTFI

B1: human prostate apoptosis response-4 protein (PAR4), full length (other)
chain: MATGGYRTSSGLGGSTTDFLEEWKAKREKMRAKQNPPGPAPPGGGSSDAAGKPPAGALGTPAAAAANELNNNLPGGAPAAPAVPGPGGVNCAVGSAMLTRAPPARGPRRSEDEPPAASASAAPPPQRDEEEPDGVPEKGKSSGPSARKGKGQIEKRKLREKRRSTGVVNIPAAECLDEYEDDEAGQKERKREDAITQQNTIQNEAVNLLDPGSSYLLQEPPRTVSGRYKSTTSVSEEDVSSRYSRTDRSGFPRYNRDANVSGTLVSSSTLEKKIEDLEKEVVTERQENLRLVRLMQDKEEMIGKLKEEIDLLNRDLDDIEDENEQLKQENKTLLKVVGQLTR
notes: Tested as a Gal4-BD (pGBKT7-Par4) or Gal4-AD (pGADT7-Par4) fusion in yeast two-hybrid; also called Par4 wild type
B1: binds [1]; binds [2]; binds [3].

B2: SLC/CCL21ΔCOOH deletion mutant lacking the basic carboxy-terminal extension (ligand)
chain: SDGGAQDCCLKYSQRKIPAKVVRSYRKQEPSLGCSIPAILFLPRKRSQAELCADPKELWVQQLMQHLDKTPSPQKPAQG
notes: Tested as a Gal4-AD or Gal4-BD fusion and as in vitro translated protein; also called SLC/CCL21?COOH
B2: binds [4].

B3: THAP1 RR/AA mutant (R171A, R172A) (other)
chain: T3 sequence with R171A, R172A
notes: Tested as a Gal4-BD fusion (pGBKT7), as in vitro translated protein and as an EGFP fusion; also called THAP RR/AA
B3: no binding [5]; no binding [6].
